Results taken from US20200385445A1 (COMPUGEN, published 2020).

Key:
[1] = target: T1, human PVRIG (Poliovirus Receptor Related Immunoglobulin Domain Containing Protein), full length on cells (human, UniProt Q6DKI7 41-326); assay: FACS on resting human CD4+ T cells
T1 construct: whole, on cells; Over-expressed on HEK293 (some pools flag-tagged) or endogenous on Jurkat, CA46, T cells, NK cells, TILs; also called hPVRIG; HEK hPVRIG
T1 sequence (looked up): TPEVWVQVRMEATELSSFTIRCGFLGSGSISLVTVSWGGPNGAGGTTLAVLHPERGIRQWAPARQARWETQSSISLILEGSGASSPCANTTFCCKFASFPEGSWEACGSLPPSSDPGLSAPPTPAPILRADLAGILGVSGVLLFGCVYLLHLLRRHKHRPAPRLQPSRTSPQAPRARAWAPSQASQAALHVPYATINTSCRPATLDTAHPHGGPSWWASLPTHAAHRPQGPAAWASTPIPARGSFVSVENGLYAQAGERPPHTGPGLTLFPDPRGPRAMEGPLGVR

[2] = target: T1, human PVRIG (Poliovirus Receptor …); assay: FACS on CD4+ T cells, days 3-6 of activation
[3] = target: T1, human PVRIG (Poliovirus Receptor …); assay: FACS dose titration on PVRIG over-expressing HEK293 cells
Experimental: FACS screening of the reformatted antibodies was done similarly to the PPE based screen described herein, except that a dose-dependent titration of the purified antibodies was performed. The human PVRIG over-expressing HEK293 cells, or the un-transfected HEK293 cells, were incubated with varying concentrations (0-10 μg/ml) of the anti PVRIG antibodies or isotype controls in FACS buffer at 4° C. for 60 mins. […] Cells were washed twice and re-suspended in a final volume of 80 μl of FACS buffer and Propidium Iodide (Biolegend cat #421301) diluted 1:1000. Samples were analyzed using an Intellicyt HTFC screening system (Intellicyt). Data was analyzed using FlowJo (DeNovo), exported to Excel (Microsoft) and plotted in GraphPad Prism (GraphPad Software, Inc.).
All unique ELISA and FACS binders were reformatted for expression as human IgG1 molecules in Expi293 cells. […] These reformatted antibodies were tested for retained binding to PVRIG over-expressing HEK293 cells alongside an irrelevant human IgG1 isotype control. All antibodies were also tested against un-transfected HEK293 cells.

[4] = target: T2, L95R/T97I cyno PVRIG ECD with C-terminal 6xHis tag (cynomolgus monkey); assay: ELISA on coated His-tagged PVRIG variant
T2 chain: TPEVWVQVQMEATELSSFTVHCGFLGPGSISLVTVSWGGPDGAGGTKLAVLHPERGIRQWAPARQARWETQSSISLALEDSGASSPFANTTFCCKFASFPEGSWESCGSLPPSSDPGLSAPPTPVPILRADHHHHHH

[5] = target: T1, human PVRIG (Poliovirus Receptor …); assay: flow cytometry, Alexa 647 IgG titrated on HEK 293 cells expressing human PVRIG, 1:1 equilibrium fit
[6] = target: T3, human PVRL2-His (Catalog #2229-N2-050/CF, R&D Systems) (human, UniProt Q92692 32-360); assay: SPR ProteOn, analyte over Fc-captured ligand; complex kinetics
T3 construct: Bought (R&D Systems); also called His-tagged PVRL2 recombinant protein; PVRL2 (CD112)
T3 sequence (looked up): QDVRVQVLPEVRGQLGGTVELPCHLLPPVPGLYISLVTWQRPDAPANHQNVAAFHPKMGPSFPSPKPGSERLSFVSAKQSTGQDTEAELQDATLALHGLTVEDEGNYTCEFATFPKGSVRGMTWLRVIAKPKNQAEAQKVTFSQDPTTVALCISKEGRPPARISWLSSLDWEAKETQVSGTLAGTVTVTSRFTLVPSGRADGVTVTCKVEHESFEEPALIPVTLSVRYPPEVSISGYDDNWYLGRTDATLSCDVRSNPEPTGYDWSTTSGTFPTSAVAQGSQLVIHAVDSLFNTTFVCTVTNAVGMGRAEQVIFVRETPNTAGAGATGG

B1: Anti-human PVRIG - CPA.7.021, Human IgG2, conjugated to AF-647 (antibody, V domains shown)
VH: EVQLVESGGGVVKPGGSLRLSCAASGFTFGTSSMNWVRQAPGKGLEWVAVISFDGTEIHYADSVKGRFTISRDNSKSTVFLQMNSLRPDDTALYYCAKGSGNIYFYSGMDVWGQGTTVTVSS
VL: DIQMTQSPSTLSASVGDRVTITCRAGQSISGWLAWFQQKPGKAPNLLIYETSTLESGVPSRFSGSGSGTEYTLTISSLQPDDFATYYCQQYYSYPLTFGQGTKVEIK
modifications: Alexa Fluor 647 dye conjugated to the antibody (site not stated).
notes: also called Anti PVRIG-CPA.7.021 ab; CPA.7.021 IgG2 A647
Question: What does the source list for B1?
Answer: fold staining over isotype control [1]: 3 fold; fold staining over isotype control [2]: 2 to 3 fold

B2: CPA.7.021 human IgG1 (antibody, V domains shown)
VH: EVQLVESGGGVVKPGGSLRLSCAASGFTFGTSSMNWVRQAPGKGLEWVAVISFDGTEIHYADSVKGRFTISRDNSKSTVFLQMNSLRPDDTALYYCAKGSGNIYFYSGMDVWGQGTTVTVSS
VL: DIQMTQSPSTLSASVGDRVTITCRAGQSISGWLAWFQQKPGKAPNLLIYETSTLESGVPSRFSGSGSGTEYTLTISSLQPDDFATYYCQQYYSYPLTFGQGTKVEIKR
Question: Which Kd [3] does the source give for B2 here?
Answer: 11.2 nM

Question: Does B2 bind [4]?
Answer: binds

B3: CPA.7.021 IgG conjugated with Alexa 647 (antibody, V domains shown)
VH: EVQLVESGGGVVKPGGSLRLSCAASGFTFGTSSMNWVRQAPGKGLEWVAVISFDGTEIHYADSVKGRFTISRDNSKSTVFLQMNSLRPDDTALYYCAKGSGNIYFYSGMDVWGQGTTVTVSS
VL: DIQMTQSPSTLSASVGDRVTITCRAGQSISGWLAWFQQKPGKAPNLLIYETSTLESGVPSRFSGSGSGTEYTLTISSLQPDDFATYYCQQYYSYPLTFGQGTKVEIK
modifications: Alexa Fluor 647 dye conjugated to the antibody (site not stated).
notes: also called Alexa647 labelled CPA.7.021 IgG; conjugated CPA.7.021
Question: For B3, which Kd [5] is on record?
Answer: 2.5 nM

B4: CPA.7.033 human IgG1 (antibody, V domains shown)
VH: QVQLVQSGAEVKKPGSSVKVSCKASGGTFSSSAISWVRQAPGQGFEWMGGIIPIYGITDYAQKFQGRVTITTDESTSTAYMELSSLTSEDTAVYYCARDDTARRVRGVPYYYYYAMDVWGQGTTVTVSS
VL: ETTLTQSPAFMSATPGDEVNISCKASQDIDDDVSWYQQKPGGAPIFLIQEASTLVPGIPPRFSGSGFGTDFTLTIKNMESEDAAYYFCLQHDNLPLTFGGGTKVDIKR
Question: Which Kd [3] does the source give for B4 here?
Answer: 12.8 nM

B5: CPA.7.036 human IgG1 (antibody, V domains shown)
VH: QVQLVQSGAEVKKPGSSVKVSCKASGGTFSSSAISWVRQAPGQGFEWMGGIIPIYGITDYAQKFQGRVTITTDESTSTAYMELSSLTSEDTAVYYCARDDTARRVRGVPYYYYYAMDVWGQGTTVTVSS
VL: DIVMTQTPLSLPVTPGEPASISCRPSQSLLDSDDGNTYLDWYLQKPGQSPQLLIHTLSYRASGVPDRFSGSGSGTDFTLKISRVEAEDVGVYYCMQRLQFPLTFGGGTKVEIKR
notes: also called CPA.7.36
Question: How did the Kd [3] turn out when B5 was run?
Answer: 6 nM

B6: CPA.7.038 human IgG1 (antibody, V domains shown)
VH: QVQLVQSGAEVKKPGSSVKVSCKASGGTFSSSAISWVRQAPGQGFEWMGGIIPIYGITDYAQKFQGRVTITTDESTSTAYMELSSLTSEDTAVYYCARDDTARRVRGVPYYYYYAMDVWGQGTTVTVSS
VL: DIQMTQSPSSLSASVGDRVTITCQASRDISDSLSWYQQKPGKAPKLLIFDASNLKTGVSSRFSGSGSGTDFTFTISSLQPEDIATYYCHQYDNLPLTFGGGTKVEIKR
Question: B6 was tested. Which Kd [3] did it give?
Answer: 20.3 nM

B7: CPA.7.049 human IgG1 (antibody, V domains shown)
VH: QMQLVQSGAEVKKPGSSVKVSCKASGGTFSSSAISWVRQAPGQGFEWMGGIIPIYGITDYAQKFQGRVTITTDESTSTAYMELSSLTSEDTAVYYCARDDTARRVRGVPYYYYYAMDVWGQGTTVTVSS
VL: DIVMTQTPLSLPVTPGEPASMSCRSSRSLLDSDDGNTHLDWYLQKPGQSPQLLIQSLSYRASGVPDRFSGSGSGTDFTLEISRVEAEDVGIYYCMQRKEFPLTFGGGTKVEIKR
Question: Which Kd [3] does the source give for B7 here?
Answer: 19.9 nM

B8: CPA.7.024 human IgG1 (antibody, V domains shown)
VH: EVQLVQSGAEVKKPGSSVKVSCKASGGTFSSYAISWVRQAPGQGLEWMGGIIPIFGTANYAQKFQGRVTITADESTSTAYMELSSLRSEDTAVYYCARDAYYYDSSGYYNPDAFDIWGQGTMVTVSS
VL: DVVMTQSPLSLPVTPGEPASISCRSSQSLLHSNGYNYLDWYLQKPGQSPQLLIYLGSSRASGVPDRFSGSVSGTDFTLKISRVEAEDVGVYYCMQGLQTPRTFGRGTKLEIKR
Question: For B8, which Kd [3] is on record?
Answer: 9.08 nM

B9: CPA.7.050 human IgG1 (antibody, V domains shown)
VH: EVQLVQSGAEVKKPGSSVKVSCKASGGTFSSYAISWVRQAPGQGLEWMGGIIPIFGTANYAQKFQGRVTITADKSTSTAYMELSSLRSEDTAVYYCARGPWYYDSSGYSSYAYYMDVWGQGTTVTVSS
VL: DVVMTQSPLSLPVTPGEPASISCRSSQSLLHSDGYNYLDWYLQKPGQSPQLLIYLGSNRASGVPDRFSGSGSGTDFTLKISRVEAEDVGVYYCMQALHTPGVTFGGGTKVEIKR
notes: also called CPA.7.50
Question: For B9, which Kd [3] is on record?
Answer: 68.3 nM

B10: human DNAM-1 fusion protein (human fc, R&D Systems) (Fc fusion, UniProt Q15762 19-247, looked up, not shown: a dimerising Fc or GST)
chain: EEVLWHTSVPFAENMSLECVYPSMGILTQVEWFKIGTQQDSIAIFSPTHGMVIRKPYAERVYFLNSTMASNNMTLFFRNASEDDVGYYSCSLYTYPQGTWQKVIQVVQSDSFEAAVPSNSHIVSEPGKNVTLTCQPQMTWPVQAVRWEKIQPRQIDLLTYCNLVHGRNFTSKFPRQIVSNCSHGRWSVIVIPDVTVSDSGLYRCYLQASAGENETFVMRLTVAEGKTDN
notes: Bought
Question: Does B10 bind [6]?
Answer: binds

B11: CPA.7.034 human IgG1 (antibody, V domains shown)
VH: EVQLVQSGAEVKKPGASVKVSCKVSGYTLTELSMHWVRQAPGKGLEWMGGFDPEDGETIYAQKFQGRVTMTEDTSTDTAYMELSSLRSEDTAVYYCATEDPGPVAGPYYYYGMDVWGQGTTVTVSS
VL: DVVMTQSPLVLPVTPGEPASISCRSSQSLLYINGYHYLDWYVQRPGQSPQLLIFLGSTRASGVPDRFSGSGSGTDFTLEISKVEAEDVGIYFCMQALQTPPTFGGGTKVEIKR
notes: also called CPA.7.34
Question: Which Kd [3] does the source give for B11 here?
Answer: 14.2 nM
